Results published in the nanobody polyreactivity screen of Harvey et al. (2022).

Test: yeast display, Sf9 membrane polyspecificity reagent, FACS + sequencing; frameworks hold sequencing errors
Procedure, shortened: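 A nanobody's polyreactivity label depends on the gate it was sorted from. Yeast display cells were stained with 10% biotinylated, detergent-solubilized Sf9 membrane reagent for 1 hour at 4 °C, enriched on streptavidin microbeads and sorted by FACS. The low and high (top ~1%) gates were set on anti-HA fluorescence for expression and streptavidin fluorescence for reagent binding.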

Row | Sequence | polyreactivity (PSR sort gate)
1 | QVQLVESAGGLVQEGGSLRLSCAASGRIFARYAMGWSRQAPGKERELVAAITDSGDNTYYADSVKGRFTISRDNAKNTVYLQMNSLKPEDTAVYYCKAYFLVHYRRLRPYDYWGHGTQVTVSS | low polyreactivity
2 | QVQLVESGGGLVQAGGSLRLSCAASGSTFLKNAMGWSRQAPGKERELVAAISYSTTRTYYADSVKGRFTISRDNAKNTVYLQMNSLKPEDTAVYYCNKASYWGSGFDYWGQGTQVTVSS | low polyreactivity
3 | QVQLVESGGGLVQAGGSLRLSCAASGRIFFYNVMGWYRQAHGKERELVAAITTIGGSTYYADSVKGRFTISRDNAMNTVYLQMNSLKPEDTAVYYCAAGWVTNSDGMDYWGQGTQVTVSS | low polyreactivity
4 | QVQLVESGGGLVQAGGSLRLSCAASGSTLYQYTMGWYRQAPGKERELVAGISRRGGSTYYADSVKGRFTISRDNAKNTVYLQMNSLKPEDTAVYYCAKRPPYIAWYGYNGDYWGQGTQVTVSS | high polyreactivity
5 | QVQLVESGGGLVQAGGSLRLSCAASGSTFRVNAMGWYRQAHGKEREFVAGISFGGGSTYYADSVKGRFTISRDNAKNTVYFQMNSLKPEDTADYYCNARGKGSGAVRYNYWGQGTLVTVSS | high polyreactivity
6 | QVQLVESGGGLVQAGGSLRLSCAASGRIFQHNTMGWYRQAPGKEREFVAAIRRSGGSTYYADSVKGRFTISRDNAKNTVYLQMNSLKPEDTAVYYCAARDYPTGTRRWGGGDSWGQGTQVTVSS | low polyreactivity
7 | QVQLVESGGGLVQAGGSLRLSCAASGRTFNHNPMRWYRQAPGKERELVAAISYSGGGTYYADSVKGRFTFSRDNAKNSVYLQMNSLKPEDTAVYFCAAYPVRGAYGYWGQGTQVTVSS | low polyreactivity
8 | QVQLVESGGGLVQAGGSLRLSCAASGRSFYLYAMGWYRQAPGKERELVASISWNGGSTYYADSVKGRFTISRDNAKNTVYLQMNSLKPEDTAVYYCATDSHRSRLNRPYQLFPAYYYWGQGTQVTVSS | low polyreactivity
9 | QVQLVESGGGLVQAGGSLRLSCAASGNTFEYYVMGWYRQAPGKERELVAAITWSTGSTYYADSVKGRFTISRDNAKNTVYLQMNSLKPEDTAVYYCAALYYFIFGRPTRFDYWGLGTQVTVSS | low polyreactivity
10 | QVQLVESGGGLVQAGGSLRLSCAASGRTFYSYTMGWYRQAPGKERELVAAINRGGSTYYADSVKWRFTISRDNAKNTVYLQMNSLKPEDTAVYYCNADNWVYLYDYWGQGTQVTVSS | low polyreactivity
11 | HVQLVESGGGLVQAGGSLRLSCAASGRIFGYNAMGWYRQAPGKERELVAAISYSGGSTYYADSVKGRFTISRDNAKNTVYLQMYSLKPEDTAVYYGAARGHYASLFGGYFHYNYWGQGPQVTVSS | high polyreactivity
12 | QVQLVESGGGLVQAGGSLRLSCAASGSTFYRNAMGWYRQAPGKERELVAAISTSGGSTYYADSVKGRFTISRDNAKNTVYLQMNSLKPEDTAVYYCATDSYYFDVMYGWKEYDYWGQGTQVTVSS | high polyreactivity
13 | QVQLVETGGGLVQAGGSLRLSCAASRSTIADNAMGWYRQAPGKERELVAAITRSGVRTYYADSVKGRFTISRDNAKNTVYLQMNSLKPEDTAVYYCAKRTYPSRIYDYWGQGTQVTVSS | low polyreactivity
14 | QVQLVESGGGLVQAGGSLRLSCAASGITLSVYAMGWYRQAPRKERELVASISSGGTSTYYADSVKGRFTISRDNAKNTVYLLMISLKPEDTAVYYCAAYSYYTGDQYSYDYWGQGTQVTVSS | low polyreactivity
15 | QVQLVESGGGLVQAGGSLRLSCAASGRTFSGYAMGWYRQAPGKERELVAGITWNGGRTYYADSVKGRFTISRDNAKNTVSLQMNSLKPEDTAVYYCNKLGAVYPKYGYWGQGTQVTVSS | high polyreactivity
16 | QVQLVESGGGLVQAGGSLRLSCAASGSTFEYYVMGWYRQAPGKERELVAAISGSGGGTYYADSVKGRFTISRDNEKNTVYLQMNSLKPEDTAVYYCAAVATQEKYDYWGQGTQVTVSS | low polyreactivity
17 | QVQLEESGGGLVQAGGSLRLSCAASGSICWLYAMGWYRQAPGKERELVAAIDSGDSTKYADSVKGRFTISRDNAKNTVYLQMNSLIPEDTAVYYCNASRRYHVRAPYDYWGQGTQVTVSS | low polyreactivity
18 | QVQLVESGGGLVQAGGSLRLSCAASGSIFGYYTMGWYRKAPGKERELVAAITSGGSTNYADSVKGRFTISRDNAKNTVYLQMNSLKPEDTAVYYCAKVSYYPWRYDYWGQGTQVTVSS | low polyreactivity
19 | QVQLVESGGGLVQAGGSLRLSCAASGHIFPTNPMGWYRQAPGKERQLVAVISESVGSTYYADSVKGRFTISRDNAKNTVYLQMNSLKPEDTAVYFCAKQSRYPSLDADYDYWGQGTQVTVSS | low polyreactivity
20 | QVQLVESGGGLVQAGGSLRLSCAASGSILPYYAMGWYRQAPGKERELVAAISVSGGGTYYADSVKGRFTISRDNAKNTVYLQMNSLKPEDTAVYYCARNVNAQKVLGGFDSWGQGTQVTVSS | low polyreactivity
21 | QVQLVESGGGLVHAGGSLRLSCAASGSTFKIYAMGLYRQAPGKERELVASIRGRGGSTYYADSVKGRFTISRDNAKNTVYLQMNSLKPEDTAVYYCNATYGHRYPACISYDYWGQGTQGTVSS | high polyreactivity
22 | QVHLVESGGGLVQAGGSLRLSCAASGRIFDGYDMGWYRQAPGKERELVAAITSVGSTNYADSVKGRFTISRDNAKNTVYLQMNSLKPEDTAVYYCAAVLYVFDDEYGYLEYFSQYDYWGQGSQVTVSS | low polyreactivity

Row | Sequence | polyreactivity (PSR sort gate)
23 | QVQLVESGGGLVQAGGSLRLSCAASGSTFGVNAMGWYRQAPGKERELVATISRGTSTNYADSVKGRFTISRDNAKNTVYLQINSLKPEDTAVYYCAKRVFYPGAYRYYYWGQGTQVTVSS | high polyreactivity
24 | QVQLVESGGGLVPAGGSLRLRCAASGSTFPYYAMGGYRQAPGKERELVAAIRRSGANTYYADSVKGRFTISRDNAKNTVYLQMNSLKPEDTAVYYCNVEYVISWWLYDYWGQGTQVTVSS | low polyreactivity
25 | QVQLVESGGGLVQAGGSLRLSCAASGRIYVNAMGWYIQAPGKERELVAAIRSGGSTNYADSVKGRFTISRDNAKNTVYLQMNSLKPEDTAVYYCNARRRDYRHWYDYWGQGTQVTVSS | high polyreactivity
26 | QDQLEESGGCLVQAGGSLRLSCAASGRIFYGYVMRWYRQAPGKERELVAAINQSGTSTYYADSVKGRFTISRDYAKNTVYLQMNSLKPEDTAVYYCAKDWAYRRHWVGFYYWGQGTQVTVSS | low polyreactivity
27 | QVQLVESGGGLVQAGGSLRLSCAASGRTFIANAMGWSRQAPGKERELVAAISWSGGSTYYADSVKGRFTISRDNAKNTVYLQMNSLKPEDTAVYYCTAKRFRTGFDYWGQGTQVTVSS | low polyreactivity
28 | QVQLVESGGGLVQAGGSLRLSCASYGYTFFNYAKGWYRQAPGKERELVAAITTGGSTYYADSVKGRFTISRDNAKNTVYLQMNSLKPEDTAVYYCPFDYWGQGTQVTVSS | high polyreactivity
29 | QVQLVESGGGLVQAGGSLRLSCAASGRIFRENAMGWYRQAPGKERELVASNSLSGTSTYYADSVKGRFTISRDNAKNTVYLQMNSLKPEDTAVYYCNGERLSTDPYDRNYWGQGTQVTVSS | low polyreactivity
30 | QVQLVESGGGLVQAGGSLRLSCAASGNTFRDYAMGWYRQAPGKERELVAAITSSGARTYYADSVKGRFTISRDNAKNTVYLQMISLKPEDTAVYYCAADWSGYYTYDYWGQGTQVTVSS | low polyreactivity
31 | QVQLVESAGGLVQAGGSLRLSCAASGSTFPTYAMGWYRQSPGKERELVAAIDWSDGSITYYADSVKGRFTISRDNAKNTVYLQMNSMKPEDTAVYYCAKDNSQYGWGYDYWGQGTQVTVSS | low polyreactivity
32 | QVQLVESGGGLVQAGGSLRLSCAASGFIFEPYAMGWYRQAPGKERELVAAISSGGSTYADSVKGRFTISRDNAKNTVYLQMNSLKPEDTAVYYCAVRGYWGQGTQVTVSS | low polyreactivity
33 | QVQLVESGGGLVQAGGSLRLSCAASGSIFGYYTMGWYRQAPGKERELVAAITYSGGSTYYADSVKGRFTISRDNAKNTVYLQMNSLKPEDTAVYYCNAKSAAHRYVRRHDYWGQGTQVTVSS | low polyreactivity
34 | QVQLVESGGGLVQAGGSLRLSCAASGFTLYSYAMGWYRQAPGKERELVAAIRRRGASTYYADSVKGRFTISRDNAKNTVYLQMNSLKPEDTAVYYCAADAKYPDDDYWGQGTQVTVSS | high polyreactivity
35 | QVQLVESGGGLVQAGGSLRLSCAASVSTLRYYAMGWYRQAPGKERELVAAISYSGGSTYYADSVKGRFTISRDNAKNTVYLQMNRLKPEDTAVYYCNAEWGWRRYGSSYVYWGQGTQVTVSS | high polyreactivity
36 | QVQLVESGGGLVQAGGSLRLSCAASGFTFWWYAMGWYRQAPGKERELVASIDTRGGTYYADSVKGRFTISRDNAKNTVYLQMNRLKPEDTAVYYCNADGAYGNYRGGYWGQGTQVTVSS | high polyreactivity
37 | QVQLVESGGGLVQAGGSLRLSFAASGSNFAVKAMGLNTPAPGKERELVATITRRDGSTYYADSVKGRFTISRDNAKYTVYLQLNSLKPEDTAVYYCNARLKRTYDYWGQGTQVTVSS | high polyreactivity
38 | QVQLVESGGGLVQAGGSLRLSCAASGITFYKYVMGWYRQAPGKEREFVAAITWSGDSTYADSVKGRFTISRDNAKNTVYLQMNSLKPEDTAVYYCAARTWSRRQREYDYWGQGTQVTVSS | high polyreactivity
39 | QVQLVESGGGLVHAGGPLRLSCAASGGIFFSYAMGWYRQAPGKERELVAAIRTNGGTTYYADSVKGRFTISRDNAKNTVYLHMNSLKPEETAVYDCAALPGGYYDRGEYDYWGQGTQVTVSS | low polyreactivity
40 | QVQLVESGGGLVQAGGSLRLSCAASGFTFQYYAMGWYRQAPGKERELVAAISWSGDSTYYADSVKGRITISRENAKNSVYLQMNSLKPEDTAVYYCAVYYTRGYDYWGQGTQVTVSS | high polyreactivity
41 | QVQLVESGGGLVQAGGTLRLSCSATGYIFWSYAMGGYRQAPGKERELVAGITASGGSTYYADSVKGRFTISRDNAKNTVYLQMNSLKPEDTAVSYCAVALRSTPRTREVRPSPRVYYWGQGTQVTVSS | high polyreactivity
42 | QVQLVESGGGLVQAGGSLRLSCAASGRIFYGKAMGWYRQAPGKERELVAGITTSGGGTYYADSVKGRFTISRDNAKNTVYLKMNSLKPEDTAVYYCAAKYRRYRDIQDGGYWGQGTQVTVSS | low polyreactivity
43 | QVQLVESGGGLVQAGGSLRLSCAASGITFVHYAMGWYRQAPGKEREFVAAITKGGGSTSYADSVKGRFTISRDNAKNTVYLQMNSLKPEDTAVYYCAATYYAYGFSISYYYWGQGTQVTVSS | high polyreactivity
